For this assay, the target named is Human full-length eIF4AI (human, UniProt P60842 1-406). The assay is described as follows: ITC.

The source of these data is publication PMC3659266 (Structure (London, England : 1993), 2013).

Chain of Human full-length eIF4AI (P60842 whole entry): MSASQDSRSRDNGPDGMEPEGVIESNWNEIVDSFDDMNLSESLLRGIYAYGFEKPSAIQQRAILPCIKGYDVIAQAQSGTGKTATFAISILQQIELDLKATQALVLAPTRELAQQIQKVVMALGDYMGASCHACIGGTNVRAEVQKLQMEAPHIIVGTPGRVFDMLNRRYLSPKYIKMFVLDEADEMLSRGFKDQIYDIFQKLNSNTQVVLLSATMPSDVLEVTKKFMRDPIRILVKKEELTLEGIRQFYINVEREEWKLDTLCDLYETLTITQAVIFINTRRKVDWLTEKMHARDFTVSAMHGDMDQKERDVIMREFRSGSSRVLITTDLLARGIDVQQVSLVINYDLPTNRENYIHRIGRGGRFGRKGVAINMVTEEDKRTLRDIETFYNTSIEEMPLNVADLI

B1: Middle domain of human eIF4GI (MIF4G, residues 732-1003) (domain or fragment, UniProt Q04637 732-1003, looked up)
chain: KAWKPSSKRTAADKDRGEEDADGSKTQDLFRRVRSILNKLTPQMFQQLMKQVTQLAIDTEERLKGVIDLIFEKAISEPNFSVAYANMCRCLMALKVPTTEKPTVTVNFRKLLLNRCQKEFEKDKDDDEVFEKKQKEMDEAATAEERGRLKEELEEARDIARRRSLGNIKFIGELFKLKMLTEAIMHDCVVKLLKNHDEESLECLCRLLTTIGKDLDFEKAKPRMDQYFNQMEKIIKEKKTSSRIRFMLQDVLDLRGSNWVPRRGDQGPKTID
The molecule B1 showed a Kd of 136 nM.
